Measured values as given in paper PMC4889239.

Target: ataxia-telangiectasia mutated (ATM) kinase, full-length human (human) (UniProt Q13315)
Experiment: negative-stain single-particle electron microscopy
Settings: remark: other sources report otherwise

Question: “ataxia-telangiectasia mutated (ATM) kinase, full-length human, Q13315 1-3056” was tested. Which percent of the particles that are dimers (% of the particles) did it give?
Answer: Its percent of the particles that are dimers (% of the particles) is 60.
